Reference: patent publication US7449443B2, “Method for stabilization of proteins using non-natural amino acids” (California Institute of Technology, priority 2000, dated 2008)

What was measured:
Type in all cases: physicochemical
[1] = CD thermal unfolding of GCN4-p1 coiled-coil peptides
Description: Circular Dichroism (CD) Analysis. CD spectra were recorded on an Aviv 62DS spectropolarimeter (Lakewood, N.J.) in PBS buffer, pH 7.4. All peptide concentrations were determined by amino acid analysis of a stock solution (5 mg/ml). Experiments were performed in a rectangular cell with pathlength of 1 cm for low concentration samples and pathlength of 1 mm for high concentration samples. Spectra were scanned from 250 nm to 200 nm with data taken every 1 nm. The temperature of the solution was maintained by a thermostatically controlled cuvette holder (HP model 89101A). Temperature scans were performed from 0° C. to 100° C. in 1° C. steps. Three scans were performed on a single sample and averaged. Each data point was collected after 30 seconds of thermal equilibration at the desired temperature. Urea titration scans were performed manually starting with the 8 M concentrated sample followed by serial dilution to the desired urea concentration. At each concentration, the sample was allowed to equilibrate for 5 min before recording the CD signal.
The analysis of CD thermal melting data was performed according to a previously described procedure using a two-state model (Schneider, J. P.; Lear, J. D.; DeGrado, W. F. J. Am. Chem. Soc. 1997, 119, 5742-5743). Temperature-dependent ellipticity data for each protein at different concentrations were fitted globally using a non-linear least-squares fitting procedure supplied with the Origin 6.0 software. For wild-type A1, the concentrations used for curve fitting were 10 and 100 μM, while 2 and 100 μm were used to fit data for the 92% fluorinated A1. The thermodynamic quantities Tm, ΔHm, ΔCp and Kd were parameters of the fitting procedure and are reported in the 1 M standard state. The free energy of folding at any temperature is given by equation 1. ΔG°=ΔHm(1−T/Tm)−ΔCp((Tm−T)+T1n(T/Tm) (1)
The thermal stabilities of the coiled-coil dimers of Leu-GCN4-p1 and Tfl-GCN4-p1 were examined by CD spectroscopy (FIG. 2B). A significant increase in the thermal stability of Tfl-GCN4-p1 as compared to Leu-GCN4-p1 is reflected in an elevation of the thermal denaturation temperature from 48° C. to 61° C. The 13° C. increase in Tm is remarkable in view of the fact that no increase in the thermal stability of GCN4-p1 has been reported based solely on substitution of the leucine residues at the d-positions. […] As expected for a monomer-dimer equilibrium, the denaturation curves depend on the peptide concentrations, and their midpoints shift to higher temperature as the concentrations of peptides are increased (FIG. 2C). The thermodynamic changes associated with the transition (folded dimer to unfolded monomers) is calculated from the melting curves by fitting the data to a monomer-dimer equilibrium (J. P. Schneider, J. D. Lear and W. F. DeGrado, J. Am. Chem. Soc. 119, 5742, 1997). Global analysis of the thermal unfolding curves at two different concentrations, approximately 85 μM and 3 μM, gave a calculated ΔH° of 60.2 kcal mol^−1, Tm of 385.4 K and ΔCp of 530 cal mol^−1 K^−1 for Tfl-GCN4-p1 (1 M standard state); the corresponding values for Leu-GCN4-p1 are 70.3 kcal mol^−1, 365.6 K and 740 cal mol^−1 K^−1 respectively.

[2] = Sedimentation equilibrium ultracentrifugation (aggregation state); conditions: concentration range approximately 10 μM-40 μM
Description: Ultracentrifugation. Sedimentation equilibrium analysis of the wild type proteins GCN4-p1 and A1 and the corresponding artificial proteins containing the non-natural amino acids was performed using a Beckman XLI analytical ultracentrifuge, recording interference data and radial absorbance at 236 and 280 nm at the same time. […] The samples were centrifuged at 35000, 40000, 45000 rpm, until equilibrium was reached. Partial specific volumes were calculated by the residue-weighted average method of Cohn and Edsall (Harding, S. E.; Rowe, A. J.; Harton, J. C. Analytic Ultracentrifugation in Biochemistry and Polymer Science; The Royal Society for Chemistry: Cambridge, 1992). Solution densities were estimated using solute concentration-dependent density tables in the CRC Handbook of Chemistry and Physics. The data were fit as single species to provide an estimate of the aggregation states. Curve fitting of analytical ultracentrifuge data was done using Igor Pro (Wavemetrics Inc., Oswego WS) with procedures adapted from Brooks et al. (Brooks, I. S.; Soneson, K. K.; Hensley, P. Biophys. J. 1993, 64, 244) by Dr. James D. Lear.
Secondary structures of wild type polypeptide Leu-GCN4-p1 and the corresponding artificial polypeptide Tfl-GCN4-p1 were analyzed by circular dichroism (CD). […]

[3] = Guanidine hydrochloride (GuHCl) titration monitored by CD at 222 nm; conditions: at each temperature examined; 30 μM peptide
Description: The difference in the ability to these molecules to resist denaturation is examined at 30° C. (open symbols) and 50° C. (closed symbols). The ellipticity is monitored at 222 nm and with a peptide concentration of 30 μM. Insert: GuHCl titration midpoint concentration, as defined by the concentration of GuHCl that is needed to denature 50% of the peptides, are plotted as a function of temperature, as described in Examples 5.

[4] = global analysis of thermal unfolding curves, 1 M standard state

Tfl-GCN4-p1: fluorinated GCN4-p1 leucine zipper peptide with trifluoroleucine at the four d-positions
increase in Tm compared to Leu-GCN4-p1 ([1]; CD spectroscopy): 13 °C | thermal denaturation temperature (Tm) ([1]; CD spectroscopy, coiled-coil dimers): 61 °C | ΔH° ([1]; global analysis of thermal unfolding curves at approximately 85 μM and 3 μM, 1 M standard state): 60.2 kcal/mol | Tm [1, 4]: 112.2 °C | ΔCp [1, 4]: 530 cal mol^−1 K^−1 | fraction dimeric [2]: approximately 85% | concentration of GuHCl needed to unfold 50% of the peptide, versus wild-type peptide [3]: higher
